Among the data in US20200263147A1 are buried surface area values, retold here.

In test [1] the target is UL37N, the N-terminal half (residues 1 to 496) of pseudorabies virus (PRV) UL37 (pseudorabies virus (PRV)). The experiment in a line: crystal structure, interface analysis calculated without the calcium ions.
The target is the same in test [2]. The experiment in a line: crystal structure, interface analysis (PISA), calcium present.

Take “UL37N, the N-terminal half (residues 1 to 496) of pseudorabies virus (PRV) UL37”: the figures for the buried surface area in test [1] and in test [2] were 1500 Å2 and 1730 Å2, respectively.
